Experimental data taken from patent US9926369B2, “Methods for treating hepatocellular cancer by administering an anti-Ang-2 antibody” (Regeneron Pharmaceuticals, Inc., priority 2009, dated 2018).
pIC50, pKd: −log10 of the molar value.

Tests used:
[1] = target: T1, Monomeric hAng-2FD (Homo sapiens, UniProt O15123); assay: SPR binding to monomeric hAng-2FD at 25° C. and 37° C.
T1 sequence (O15123 282-496 limits assumed): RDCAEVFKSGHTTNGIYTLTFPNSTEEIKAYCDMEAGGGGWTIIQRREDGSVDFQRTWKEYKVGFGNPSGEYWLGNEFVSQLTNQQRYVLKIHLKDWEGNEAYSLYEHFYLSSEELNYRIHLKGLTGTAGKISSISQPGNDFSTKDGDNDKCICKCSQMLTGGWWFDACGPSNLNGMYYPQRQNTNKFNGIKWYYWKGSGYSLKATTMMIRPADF
Description: Additional experiments were conducted to measure the binding properties of selected anti-Ang-2 antibodies to monomeric hAng-2FD at 25° C. and 37° C. Each selected antibody or control construct was captured at a flow rate of 40 μL/min for 1 minute on a goat anti-human IgG polyclonal antibody surface created through direct chemical coupling to a BIACORE™ chip to form a captured antibody surface. Human Ang-2FD at a concentration of 500 nM or 7.8 nM was injected over the captured antibody surface at a flowrate of 60 μL/min for 3 minutes, and antigen-antibody dissociation was monitored in real time for 20 minutes at either 25° C. or 37° C.

[2] = target: T2, hAng-2 WT binding to Tie-2 (Homo sapiens, UniProt O15123); assay: ELISA blocking of full-length hAng-2 WT binding to hTie-2-mFc; assay type: biochemical
T2 construct: Full-length human Ang-2 or Ang-1 protein conjugated to 6× histidine tag (R&D Systems, Minneapolis, Minn.); purchased R&D Systems
T2 sequence (O15123 19-496): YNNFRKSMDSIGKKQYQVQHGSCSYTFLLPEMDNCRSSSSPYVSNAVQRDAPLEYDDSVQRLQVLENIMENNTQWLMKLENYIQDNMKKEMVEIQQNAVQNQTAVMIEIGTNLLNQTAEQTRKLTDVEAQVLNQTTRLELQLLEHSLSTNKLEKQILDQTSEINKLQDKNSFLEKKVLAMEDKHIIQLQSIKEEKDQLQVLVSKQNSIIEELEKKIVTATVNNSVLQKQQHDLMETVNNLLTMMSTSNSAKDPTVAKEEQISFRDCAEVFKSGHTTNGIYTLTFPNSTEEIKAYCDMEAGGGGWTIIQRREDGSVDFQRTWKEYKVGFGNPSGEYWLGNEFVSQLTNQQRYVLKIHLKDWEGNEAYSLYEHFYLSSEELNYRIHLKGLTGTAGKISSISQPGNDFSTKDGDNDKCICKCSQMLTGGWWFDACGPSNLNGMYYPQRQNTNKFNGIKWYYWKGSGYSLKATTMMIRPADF
Description: The ELISA experiments shown in this Example were conducted in a similar manner to the experiments of Example 5. Briefly, hTie-2-mFc (a chimeric construct consisting of human Tie-2 conjugated to mouse IgG; SEQ ID NO:525) was coated onto 96-well plates at a concentration of 2 μg/ml and incubated overnight followed by washing four times in wash buffer (PBS with 0.05% Tween-20). The plate was then blocked with PBS (Irvine Scientific, Santa Ana, Calif.) containing 0.5% BSA (Sigma-Aldrich Corp., St. Louis, Mo.) for one hour at room temperature. In a separate plate, purified anti-Ang-2 antibodies and control constructs, at a starting concentration of 300 nM, were serially diluted by a factor of three across the plate. Full-length human Ang-2 or Ang-1 protein conjugated to 6× histidine tag (R&D Systems, Minneapolis, Minn.) were added to a final concentration of 0.6 nM and incubated for one hour at room temperature. The antibody/antigen mixture was then added to the plate containing hTie-2-mFc and incubated for one hour at room temperature. Detection of Ang-2-His or Ang-1-His bound to hTie-2-mFc protein was determined with Horse-Radish Peroxidase (HRP) conjugated to a-Penta-His antibody (Qiagen, Valencia, Calif.) and developed by standard colorimetric response using tetramethylbenzidine (TMB) substrate (BD Biosciences, San Jose, Calif.). Absorbance was read at OD450 for 0.1 sec. […]

[3] = tested on: Tie-2 phosphorylation (Ang-2-mediated) in HUVECs; assay: Inhibition of Ang-2-mediated Tie-2 phosphorylation in FOXO1-adenovirus infected HUVECs; assay type: cell-based, human; conditions: antibody 0.5 μg/ml
Description: Further, the inventors have shown that infection of HUVECs with an adenovirus encoding FOXO1 results in expression and secretion of Ang-2, followed by activation of Tie-2 phosphorylation (Daly et al. 2006 PNAS 103:15491).
Anti-Ang-2 antibodies were tested for their ability to inhibit Tie-2 phosphorylation. Briefly, 7×10^5 HUVECs (Vec Technologies, Rensselaer, N.Y.) were plated in 6 cm cell culture dishes in 3.5 ml of MCDB131 Complete medium (Vec Technologies, Rensselaer, N.Y.). The following day, the cells were washed with Opti-MEM (Invitrogen Corp., Carlsbad, Calif.) and fed with 2 ml of Opti-MEM. […] Cells were then washed with MCDB131 and fed with 2 ml of MCDB131 containing anti-Ang-2 antibodies at a concentration of 0.5 μg/ml. At twenty hours post infection, cells were lysed and subjected to Tie-2 immunoprecipitation as described by Daly et al., Proc. Natl. Acad. Sci. USA 103:15491-15496 (2006). Immunoglobulin was collected on protein A/G beads (Santa Cruz Biotechnology, Santa Cruz, Calif.) for one hour. […] Signals were detected using HRP-conjugated secondary antibodies and ECL reagents (GE Healthcare, Piscataway, N.J.). X-Ray films were scanned and the phospho-Tie-2 and Tie-2 signals were quantified using ImageJ software. […]

**Q.** What does the source list for “H1H685P: human anti-Ang-2 antibody, HCVR/LCVR SEQ ID NOs 18/20; also referred to as mAb1 [Antibody H1H685P]”?
**A.** pKd ([1]; 25° C.): 9.47; ka, binding to monomeric hAng-2FD ([1]; 25° C.): 244000 M/s; kd, binding to monomeric hAng-2FD ([1]; 25° C.): 7.96e-05 s⁻¹; pKd ([1]; 37° C.): 9.47; ka, binding to monomeric hAng-2FD ([1]; 37° C.): 406000 M/s; kd, binding to monomeric hAng-2FD ([1]; 37° C.): 0.000139 s⁻¹; pIC50 ([2]; 0.6 nM hAng-2-His, read-out: (1) Blocking hAng-2 WT to Tie-2 IC50): 9.89; (3) Fold Difference in hAng-1 Blocking IC50 Compared to h-Ang-2 Blocking IC50 ([2]; hAng-1 blocking IC50 divided by hAng-2 blocking IC50): >2318; Inhibition of Tie-2 phosphorylation [3]: +++ (75-100%); Inhibition of Tie-2 phosphorylation (in words) [3]: Especially robust inhibition
